From doi:10.1101/2020.11.26.400622 (bioRxiv, 2020)

Legend:
crystal structure = target: the molecule itself; assay: crystal structure
[1] = target: the molecule itself; assay: negative staining electron microscopy
dynamic light scattering [2] = target: the molecule itself; assay: dynamic light scattering
dynamic light scattering [3] = target: the molecule itself; assay: dynamic light scattering; remark: listed apart in the source

Protein	binding result (crystal structure)	stoichiometry N [1]	stoichiometry N (dynamic light scattering [2])	stoichiometry N (dynamic light scattering [3])
circularly permuted human Taspase1 cp-Taspase1_(α41-183/β) (enzyme) TVGAVVVDHEGNVAAAVSSGGLALKHPGRVGQAALYGCGCWAENTGAHNPYSTAVSTSGCGEHLVRTILARECSHALQAEDAHQALLETMQNKFISSPFLASEDGVLGGVIVLRSCRCSAEPDSSQNKQTLLVEFLWSHTTESMCVGYMSAQDGKAKTHISRLPPGAVAGQSVAIEGGVCRLEGSGSGGFVLVHAGAGYHSESKAKEYKHVCKRACQKAIEKLQAGALATDAVTAALVELEDSPFTNAGMGSNLNLLGEIECDASIMDGKSLNFGAVGALSGIKNPVSVANRLLCEGQKGKLSAGRIPPCFLVGEGAYRWAVDHGIPSCP	binds			
circularly permuted human Taspase1 cp-Taspase1_(α41-233/β) (enzyme) TVGAVVVDHEGNVAAAVSSGGLALKHPGRVGQAALYGCGCWAENTGAHNPYSTAVSTSGCGEHLVRTILARECSHALQAEDAHQALLETMQNKFISSPFLASEDGVLGGVIVLRSCRCSAEPDSSQNKQTLLVEFLWSHTTESMCVGYMSAQDGKAKTHISRLPPGAVAGQSVAIEGGVCRLEGSGSGGFVLVHAGAGYHSESKAKEYKHVCKRACQKAIEKLQAGALATDAVTAALVELEDSPFTNAGMGSNLNLLGEIECDASIMDGKSLNFGAVGALSGIKNPVSVANRLLCEGQKGKLSAGRIPPCFLVGEGAYRWAVDHGIPSCPPNIMTTRFSLAAFKRNKRKLELAERVDTDFMQLKKRRQSSEKENDSGTLD		2	6	4
